Assay results from patent US20230374151A1.

Columns and labels:
[1] = biological target: STnMUC1 peptide, biotinylated; assay: SPR (Biacore T200): biotinylated STnMUC1 peptide (35-1) captured on CAP chip, scFv as analyte
[2] = biological target: STnMUC1 peptide, biotinylated; assay: SPR (Biacore T200): biotinylated STnMUC1 peptide (35-1) captured on CAP chip, scFv as analyte, 1:1 fit, average
[3] = biological target: TnMUC1 peptide 1 (partially glycosylated), biotinylated; assay: SPR (Biacore T200): biotinylated TnMUC1 peptide 1 (96-1) captured on CAP chip, scFv as analyte, 1:1 fit, average
[4] = biological target: TnMUC1 peptide (fully glycosylated), biotinylated; assay: SPR (Biacore T200): biotinylated TnMUC1 peptide batch 65-1 captured on CAP chip, scFv as analyte, 1:1 fit, average

Chain of STnMUC1 peptide, biotinylated (main, as listed by the source): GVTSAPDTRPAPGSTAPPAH

Kd [1]: 84 nM
Kd [2]: 84.1 nM
koff [2]: 0.000282 s⁻¹
kon [2]: 3350 M⁻¹ s⁻¹
Kd [3]: 28.7 nM
koff [3]: 0.000803 s⁻¹
Kd [4]: 26.6 nM
koff [4]: 0.000845 s⁻¹
Substance: murine 5E5 scFv protein (23-P1) obtained from Creative Biolabs
